Source: the nanobody polyreactivity screen of Harvey et al. (2022)

Assay: yeast display, Sf9 membrane polyspecificity reagent, FACS + sequencing; frameworks hold sequencing errors
Method in brief: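 After 36–48 hours of galactose induction, yeast (Saccharomyces cerevisiae BJ5465) displaying a synthetic nanobody library were stained at 4 °C for 1 hour with 10% biotinylated, detergent-solubilized Sf9 membrane reagent. Streptavidin microbeads enriched the stained cells before FACS sorting into low and high (top ~1%) gates on anti-HA and streptavidin fluorescence. Each clone's polyreactivity label reflects its gate of origin.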

Row | Sequence | polyreactivity (PSR sort gate)
1 | QVQLVESGGGLVQAGGSLRLSCAPSGLIFKKYTMGGYRQSPGKERELVASISKSGGSTYYADSVKGRFTFSRDNAKNTYYLQMNCLKPEDTAVYYCNRVSHYIRFDYWVQGTQVTVSS | low polyreactivity
2 | QVQLVESGGGLVQAGGSLRLSCAPSGNTFFLNAMGWYRQAPGKERELVAAITSSGGSTYYADSVKGRFTISRDNAKNTVYLQMNSLKPEDTAVYYCGTDRSYPPRSLNRRGPYEYWGQGTQVTVSS | low polyreactivity
3 | QVQLVESGGGLVQAGGSLRLSCAPSGRTFCPYAMGWYRKAPGKERELVAAISSSGSTTYYADSVKGRFTISRDNAKNTVYLQMNSLKPEDNAVYYCAAVYLRGDGEYDYWGQVTQVTVSS | low polyreactivity
4 | QVQLVESGGGLVQAGGSLRLSCAPSGRTFRFYVMGWYRQAPGKERELVAAISRGGGSTYYADSVKGRFTISRDNAKNTVYLQMNSLKPEDTAVYYCAAKPYKTRSSYWGDYYWGQGTQVTVSS | high polyreactivity
5 | QVQLVESGGGLVQAGGSLRLSCAPSGRTFRYYAMGWYRQAPGKERELVAAINWSGGSTYYADSVKGRFSISRDNAKNAVYLQKNSLKPEDTAVYYCAADEKMYITGYDYWGQGTQVTVSS | low polyreactivity
6 | QVQLVESGGGLVQAGGSLRLSCAPSGRTFVYYAMGWYRQAPGKERELVASISSGGGSTNYADSVKGRFTISRDNAKNTVYLQMNSLKPEDTAVYYCAVDTPRYRYYRTSYDYWGQGTQGTVSS | low polyreactivity
7 | QVQLVESGGGLVQAGGSLRLSCAPSGSIFDSNAMGWYRQAPGKERELVAAISSSGARTYYADSVKGRFTISRDNAKNTVYLQMNSLKPEDTAVYYCAARYAGGYYYWGQGTQVTVSS | high polyreactivity
8 | QVQLVESGGGLVQAGGSLRLSCAPSGSIFPSNVMGWYRQAPGKERELVAAISNTGSTNYADSVKGRFTISRDNAKNTVYLQMNSLKPEDTAVYYCNGDASYGFWSLLDYDYWGQATQVTVSS | low polyreactivity
9 | QVQLVESGGGLVQAGGSLRLSCAPSGSIFQSYAMGWYRQAPGKEREMVAAITRSGGRTYYADSVKGRFTISRDNAKNTVYLQMNSLKPEDTAVYYCAAFGWGYGYWGQGTQVTVSS | high polyreactivity
10 | QVQLVESGGGLVQAGGSLRLSCAPSGSIFRKYAMGRYRQAPGKERELVAAIRSSGGSTYYADSVKGRFTISRDKAKNSVYFQLNSLKPEDTAVYYCAARYYRPSRYDYWGQGTQVTVSS | high polyreactivity
11 | QVQLVESGGGLVQAGGSLRLSCAPSGSIFSYYDIGWYIQAPGKERELVAAISWDGGDRTYADSVKGRFTISRDNAKNTVYLQMTSLKPEDTAVYYFAAGWDASYGYDYWGQGTQLTVSS | low polyreactivity
12 | QVQLVESGGGLVQAGGSLRLSCAPSGSIFVYYGMGWYRQAPRKERELVAAISSGGSTHYADSVKGRFTISRDNAKITVYLQMNSLKPEDTAVYYCAADRFFWLRSYPRYYYWGQGTQVTVSS | low polyreactivity
13 | QVQLVESGGGLVQAGGSLRLSCAPSGSIFYVNAMGWYRQAPGKERELVAAITYDTGRTYYADSVKGRFTISRDNAKNTVYLQKNSLKPEDTAVYYCAVRPGYYWGYWPRFGYWGQGTQVTVSS | low polyreactivity
14 | QVQLVESGGGLVQAGGSLRLSCAPSGSTFGFYAMGWYIQAPGKERELVAAISRGGSTNYADSVKGRFTISRDNAKNTVYLQMNSLKPEDTAVYYCAKAYHATSDYWGQGTQVTVSS | low polyreactivity
15 | QVQLVESGGGLVQAGGSLRLSCAPSGSTFTYNAMGWYRQAPGKERELVASISSGTTTYYADSVKGRFTISRDNAKNTVYLQMNSLKPEDTAVYYCAVDSWSRVQGWLAHNYDYWGQGTQVTVSS | low polyreactivity
16 | QVQLVESGGGLVQAGGSLRLSCAPSGSTFYIYAMGWYRQAPGKERELVAAISTTDGTTYYADSVKGRFTISRDNAKNTVYLQMNSLKPEDTAVYYCAAEWFGSVQPAYDYWGQGTQVTVSS | high polyreactivity
17 | QVQLVESGGGLVQAGGSLRLSCAPSGYTYSDYAMGWYRQAPAKERELVAGITGGGGTYYADSVKGRFTISRDNAKNTVYLQMNSLKPEDTAVYYCAAGRRHGFGYWGQGTQVTVSS | low polyreactivity
18 | QVQLVESGGGLVQAGGSLRLSCASSALIFYWYPIGWYRQAPGKESELVAAISYGGTTTSYADSVKGRFTISRDNATNTVYLQMNSLKPEDTAVYYCAADWLYGHFQITGYPVGVDYWGQGTQVTVSS | low polyreactivity
19 | QVQLVESGGGLVQAGGSLRLSCASSARIFFWYTMGWYSQAPGKERELVAAITSSGNTNYADSVKGRFTISRDNAKNTVYLQMNSLKPEDTAVYYCATGSYSYYSLFDYWGQGTQVTVSS | low polyreactivity
20 | QVQLVESGGGLVQAGGSLRLSCASSGFIFHTYAMGWYRQAPGKERELVAAISGGTSSTYYADSVKGRFTISRDNAKNTVYLQMKSLKPEDTAVYYCAARSRRGGYPRYFYWGQGTQVTVSS | high polyreactivity
21 | QVQLVESGGGLVQAGGSLRLSCASSGFTFAYYAMGWYRQAPGKERELVAAISSRGGSTYADSVKGRFTISRDNAKNTVYLQMNSLKPEYTAVYYCNAVVPRSRYFSWTYDYWGQGTQVTVSS | high polyreactivity
22 | QVQLVESGGGLVQAGGSLRLSCASSGFTFFYYAMGWYRQAPGKERELVAAISASGGSTSYADSVKGRFTISRDNAKNTVYLQMNSLKPEDTAVYYCAARVYSVRSGYYYWGQGTQVTVSS | high polyreactivity

Row | Sequence | polyreactivity (PSR sort gate)
23 | QVQLVESGGGLVQAGGSLRLSCASSGFTFRYYAMGWYRQAPGKERELVAAITGNGGSTYYADSVKGRFTISRDNAKNTVYFQMNSLKPEDTAVYYCNKPYFTASGDRFGYWGQVTQVTVSS | high polyreactivity
24 | QVQLVESGGGLVQAGGSLRLSCASSGFTFSVYAMGWYRQAPGKERELVAAITWRGGSTYYADSVKGRFTISRDNAKNTVYLQMNSLKPEDTAVYYCAVLYPKYGKRYGYWGQGTQVTVSS | high polyreactivity
25 | QVQLVESGGGLVQAGGSLRLSCASSGFTFTYNVMGWYRQAPGKERELVAAISWSGTSTSYADSVKGRFTISRDNAKNTVYLQMNSLNPEDTAVYYCAVQRKSSKRAFRYGYWGQGTQVTVSS | high polyreactivity
26 | QVQLVESGGGLVQAGGSLRLSCASSGFTFYYSMGLYRQAPVKERELVASINYSGGSTYYADSVKGRFTISRDNGKNTLYLQMNSLKAEETGVYYCAVDVRPRGLMYYWGQGTQVTVSS | low polyreactivity
27 | QVQLVESGGGLVQAGGSLRLSCASSGFTLYANAMGWYRQAPGKERELVADISESGSSTSYADSVKGRFTISRDNAKNTVYLQMKSLKPEDTAVYYCYDYWVQGTQVTVSS | low polyreactivity
28 | QVQLVESGGGLVQAGGSLRLSCASSGGTFEVNAMGWYRQAPGKERELVAAIDTSDGSTYYADSVKGRFTISRDNAKNTVYFQMNSLKPEDTSVYYCAAERLFRFWYSAYERYDYWGQGTQVTVSS | low polyreactivity
29 | QVQLVESGGGLVQAGGSLRLSCASSGGTFSPYAMVWYIQAPGKEREMVAVIRSDVTTNYADSVKGRFTISRDNAKNTLYLQMNRLKPEDTAVYYCAVQYLGYGGLFPLDYWGQGTQVTVSS | low polyreactivity
30 | QVQLVESGGGLVQAGGSLRLSCASSGGTFVTNAMGWYRQAPAKERELVAAISYDGGITYYADSVKGRFTISRDNAKNTVYLKMNSLKPEDTAVYYGAAYRRYRNWFNYWGQGTQVTVSS | high polyreactivity
31 | QVQLVESGGGLVQAGGSLRLSCASSGHIFTRNAMGWYIQAPGKERELVAAISRTGGSTYYADSVKGRFTISRDNAKNTVYLQMNSLKPEDTAVYYCNARGTYTSRRGYDYWGQGTQVTVSS | high polyreactivity
32 | QVQLVESGGGLVQAGGSLRLSCASSGIIFSYNAMGWSRQAPGKERELVAAISSGGRTYYADSVKGRFTISRDNAKNTVYLQMKSLKPEDTAVYYCATTSPHRLYGYYYDYWGQGTQVTVSS | high polyreactivity
33 | QVQLVESGGGLVQAGGSLRLSCASSGIIFTFNAKGWYRQAPGKERELVAAISGRGARTYYADSVKGRFTISRDNAKNTVYLKMKSLKPEDTAVYYCAAPSNSYRSLSNSYQYYYWGQGSQVTVSS | high polyreactivity
34 | QVQLVESGGGLVQAGGSLRLSCASSGITFDYYDMGWYRQPPGKERELVAAISTGGGRTYYADSVKGRFTFSRDNAKNTVYLQMNSLKPEDTAVYYCAATYTRVPNRFYYWGQGTQVTVSS | high polyreactivity
35 | QVQLVESGGGLVQAGGSLRLSCASSGITFRYYAMGWYRQAPGKERELVAAITWSGGSTYYADSVKGRFTISRDNAKNTVYLQMNSLKPEDTAVYYCAADAYVLFYGDWYEFDYWGQGTQVTVSS | high polyreactivity
36 | QVQLVESGGGLVQAGGSLRLSCASSGITFSFYVMGWYRQAPGKERELVAAISRGGSTYYADSVKGRFTISRDNANNTVYLQMNSLKPEDSAVYYCAAVRLSRVYYWGQGTQVTVSS | high polyreactivity
37 | QVQLVESGGGLVQAGGSLRLSCASSGLIFPYNAMGWYRKAPGKERELVAAIDSGVTTYYADSVKGRFTISRDNAKNTVYLQMNSLKPEDTAVYYCAAVGLPGPEGDSWGQGTQVTVSS | low polyreactivity
38 | QVQLVESGGGLVQAGGSLRLSCASSGLIIDYYAMGWYRQAPGKERELVAAITSSSGITYYADSVKGRFTISRDNAKNTVYLQMNSLKPEDNAVYYCAAYTTYKLYEYAYWGQGTQVTVSS | low polyreactivity
39 | QVQLVESGGGLVQAGGSLRLSCASSGNIFRYYVMGWYRKAPGKEREFVAAITSSGGSTYYADSVKGRFTISRDNAKNTVYFQINSLKPDDSEVYYCAKDYWDPGWAEYDYWGQCTQVTVSS | low polyreactivity
40 | QVQLVESGGGLVQAGGSLRLSCASSGNIFYLYAKGWYRQARGKERELVAAIRGSGSTYYADSVKGRFTISRDNAKNTVYLQMNSLKPEDTAVYYCNARVRSQYLYSGTALGYYYWGQGTQVTVSS | high polyreactivity
41 | QVQLVESGGGLVQAGGSLRLSCASSGPTFNEYAMAWYRQAPRKERELVARITRGGSTYYADSVKGRFTISRDNAKNTFYFQINSLIPEDTAVYEFAADLSLLYGGYWITDYDYWVQGTQVTVSS | low polyreactivity
42 | QVQLVESGGGLVQAGGSLRLSCASSGRIFAHNAMGWYSQAPGKERELVAAINSGGSTDYADSVKGRFTISRDNAKNTVYLQMNSLKPEDTAVYYCAADDPGSFPDDSWGQGTQGTVSS | low polyreactivity
43 | QVQLVESGGGLVQAGGSLRLSCASSGRIFFKYAMGWYRQARGKERELLATITWRGSSTYYADSVKWRFTISRDNAKNTVYFQMNSLKPEDTAVYYCAAVAAWWYHQGVRYDYWGQGSQVTVSS | high polyreactivity
